# Measurements: patent publication US20250368745A1 (published 2025)
# Positions count from the first letter of the chain named.
# T1: human IL-18BP (human, UniProt O95998 31-194)
# T1 construct: UniProt printed as 095998; also called hIL-18BP
# T1 sequence: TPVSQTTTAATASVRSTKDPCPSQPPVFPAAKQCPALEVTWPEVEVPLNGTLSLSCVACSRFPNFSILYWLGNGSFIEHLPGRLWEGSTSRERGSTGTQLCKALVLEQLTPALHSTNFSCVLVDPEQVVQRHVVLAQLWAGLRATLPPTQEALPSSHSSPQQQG
# T2: cynomolgus IL-18BP (cynomolgus monkey)
# T2 construct: also called cyno IL-18BP; cyIL-18BP
# T2 chain: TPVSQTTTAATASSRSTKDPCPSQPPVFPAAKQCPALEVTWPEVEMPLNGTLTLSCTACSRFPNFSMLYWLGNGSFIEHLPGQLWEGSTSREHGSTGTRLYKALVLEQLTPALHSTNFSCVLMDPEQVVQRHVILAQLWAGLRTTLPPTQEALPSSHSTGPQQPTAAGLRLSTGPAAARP
# T3: human IL-18BP (interleukin-18 binding protein, isoform A) (human, UniProt O95998 31-194)
# T3 sequence: T1 sequence
# B1: SA301a HC-V100aA (antibody, name in Kabat numbering, V domains shown)
# VH: QVQLQESGPGLVKPSQTLSLTCTVSGYSITSDYNSHWIRQPPGKGLEWIGYIHYSGSTNYNPSLKSRVTISRDTSKNQFSLKLSSVTAADTAVYYCARNYGSIYANYFDYWGQGTLVTVSS
# VL: EIVLTQSPATLSLSPGERATLSCSASSSVSYMYWYQQKPGQAPRPLIYRTSNLASGIPARFSGSGSGTDFTLTISSLEPEDFAVYYCQQYHSYPTFGGGTKVEIK
# notes: IgG1 kappa
# B2: SA301a HC-I99E (antibody, name in Kabat numbering, V domains shown)
# VH: B1 VH with I103E, A105V
# VL: B1 VL
# notes: IgG1 kappa
# B3: SA301a HC-I99L (antibody, name in Kabat numbering, V domains shown)
# VH: B1 VH with I103L, A105V
# VL: B1 VL
# notes: IgG1 kappa
# B4: SA301a HC-N100bE (antibody, name in Kabat numbering, V domains shown)
# VH: B1 VH with A105V, N106E
# VL: B1 VL
# notes: IgG1 kappa
# B5: SA301a HC-I99P (antibody, name in Kabat numbering, V domains shown)
# VH: B1 VH with I103P, A105V
# VL: B1 VL
# notes: IgG1 kappa
# B6: SA301a HC-N100bR (antibody, name in Kabat numbering, V domains shown)
# VH: B1 VH with A105V, N106R
# VL: B1 VL
# notes: IgG1 kappa
# B7: SA301a HC-I99A (antibody, name in Kabat numbering, V domains shown)
# VH: B1 VH with I103A, A105V
# VL: B1 VL
# notes: IgG1 kappa
# B8: SA301a HC-I99D (antibody, name in Kabat numbering, V domains shown)
# VH: B1 VH with I103D, A105V
# VL: B1 VL
# notes: IgG1 kappa
# B9: SA301a HC-I99Y (antibody, name in Kabat numbering, V domains shown)
# VH: B1 VH with I103Y, A105V
# VL: B1 VL
# notes: IgG1 kappa
# B10: SA301a HC-N100bQ (antibody, name in Kabat numbering, V domains shown)
# VH: B1 VH with A105V, N106Q
# VL: B1 VL
# notes: IgG1 kappa
# B11: SA301a HC-N100bM (antibody, name in Kabat numbering, V domains shown)
# VH: B1 VH with A105V, N106M
# VL: B1 VL
# notes: IgG1 kappa
# B12: SA301a HC-N100bP (antibody, name in Kabat numbering, V domains shown)
# VH: B1 VH with A105V, N106P
# VL: B1 VL
# notes: IgG1 kappa
# B13: SA301a HC-V100aF (antibody, name in Kabat numbering, V domains shown)
# VH: B1 VH with A105F
# VL: B1 VL
# notes: IgG1 kappa
# B14: SA301a HC-N100bY (antibody, name in Kabat numbering, V domains shown)
# VH: B1 VH with A105V, N106Y
# VL: B1 VL
# notes: IgG1 kappa
# B15: SA301a HC-S54N (antibody, name in Kabat numbering, V domains shown)
# VH: B1 VH with S55N, A105V
# VL: B1 VL
# notes: IgG1 kappa
# B16: SA301a HC-S54T (antibody, name in Kabat numbering, V domains shown)
# VH: B1 VH with S55T, A105V
# VL: B1 VL
# notes: IgG1 kappa
# B17: SA301a HC-Y53H (antibody, name in Kabat numbering, V domains shown)
# VH: B1 VH with Y54H, A105V
# VL: B1 VL
# notes: IgG1 kappa
# B18: SA301a HC-S54R (antibody, name in Kabat numbering, V domains shown)
# VH: B1 VH with S55R, A105V
# VL: B1 VL
# notes: IgG1 kappa
# B19: SA301a HC-Y53T (antibody, name in Kabat numbering, V domains shown)
# VH: B1 VH with Y54T, A105V
# VL: B1 VL
# notes: IgG1 kappa
# B20: SA301a HC-S54Y (antibody, name in Kabat numbering, V domains shown)
# VH: B1 VH with S55Y, A105V
# VL: B1 VL
# notes: IgG1 kappa
# B21: SA301a HC-S54Q (antibody, name in Kabat numbering, V domains shown)
# VH: B1 VH with S55Q, A105V
# VL: B1 VL
# notes: IgG1 kappa
# B22: SA301a HC-S54V (antibody, name in Kabat numbering, V domains shown)
# VH: B1 VH with S55V, A105V
# VL: B1 VL
# notes: IgG1 kappa
# B23: SA301a HC-S54M (antibody, name in Kabat numbering, V domains shown)
# VH: B1 VH with S55M, A105V
# VL: B1 VL
# notes: IgG1 kappa
# B24: SA301a HC-Y53I (antibody, name in Kabat numbering, V domains shown)
# VH: B1 VH with Y54I, A105V
# VL: B1 VL
# notes: IgG1 kappa
# B25: SA301a HC-Y53L (antibody, name in Kabat numbering, V domains shown)
# VH: B1 VH with Y54L, A105V
# VL: B1 VL
# notes: IgG1 kappa
# B26: SA301a HC-Y53D (antibody, name in Kabat numbering, V domains shown)
# VH: B1 VH with Y54D, A105V
# VL: B1 VL
# notes: IgG1 kappa
# B27: SA301a HC-S54P (antibody, name in Kabat numbering, V domains shown)
# VH: B1 VH with S55P, A105V
# VL: B1 VL
# notes: IgG1 kappa
# B28: SA301a HC-Y53P (antibody, name in Kabat numbering, V domains shown)
# VH: B1 VH with Y54P, A105V
# VL: B1 VL
# notes: IgG1 kappa
# B29: SA301a HC-Y53A (antibody, name in Kabat numbering, V domains shown)
# VH: B1 VH with Y54A, A105V
# VL: B1 VL
# notes: IgG1 kappa
# B30: SA301a HC-Y53S (antibody, name in Kabat numbering, V domains shown)
# VH: B1 VH with Y54S, A105V
# VL: B1 VL
# notes: IgG1 kappa
# B31: SA301a HC-Y53G (antibody, name in Kabat numbering, V domains shown)
# VH: B1 VH with Y54G, A105V
# VL: B1 VL
# notes: IgG1 kappa
# B32: SA301a HC-Y53V (antibody, name in Kabat numbering, V domains shown)
# VH: B1 VH with Y54V, A105V
# VL: B1 VL
# notes: IgG1 kappa
# B33: SA301a HC-Y53M (antibody, name in Kabat numbering, V domains shown)
# VH: B1 VH with Y54M, A105V
# VL: B1 VL
# notes: IgG1 kappa
# B34: SA301a HC-Y53R (antibody, name in Kabat numbering, V domains shown)
# VH: B1 VH with Y54R, A105V
# VL: B1 VL
# notes: IgG1 kappa
# B35: SA301a HC-Y53Q (antibody, name in Kabat numbering, V domains shown)
# VH: B1 VH with Y54Q, A105V
# VL: B1 VL
# notes: IgG1 kappa
# B36: SA301a HC-Y53K (antibody, name in Kabat numbering, V domains shown)
# VH: B1 VH with Y54K, A105V
# VL: B1 VL
# notes: IgG1 kappa
# B37: SA301a HC-Y53E (antibody, name in Kabat numbering, V domains shown)
# VH: B1 VH with Y54E, A105V
# VL: B1 VL
# notes: IgG1 kappa
# B38: SA301a HC-Y53F (antibody, name in Kabat numbering, V domains shown)
# VH: B1 VH with Y54F, A105V
# VL: B1 VL
# notes: IgG1 kappa
# B39: SA304a (antibody, human IgG1, V domains shown)
# VH: B1 VH with S35A, G101A, A105V
# VL: B1 VL
# B40: SA308a (antibody, human IgG1, V domains shown)
# VH: B1 VH with S35A, S57A, A105V
# VL: B1 VL
# B41: SA306a (antibody, human IgG1, V domains shown)
# VH: B1 VH with S35N, A105V
# VL: B1 VL
# B42: SA305a (antibody, human IgG1, V domains shown)
# VH: B1 VH with S35A, Y100F, G101A, A105V
# VL: B1 VL
# Molecular target: T1, human IL-18BP
# Assay: BLI, apparent KD
row,Binder,Kd [nM]
1,B1,0.47
2,B2,1.95
3,B3,0.49
4,B4,0.31
5,B5,0.41
6,B6,0.25
7,B7,0.51
8,B8,1.01
9,B9,0.48

# Molecular target: T2, cynomolgus IL-18BP
# Assay: BLI, apparent KD
row,Binder,Kd [nM]
1,B1,0.15
2,B2,3.98
3,B10,0.42
4,B3,0.89
5,B4,0.91
6,B5,0.51
7,B11,1.83
8,B12,0.11
9,B7,0.61
10,B13,0.44
11,B8,1.07
12,B14,0.47
13,B9,0.45

# Molecular target: T1, human IL-18BP
# Assay: BLI, apparent KD
# Remark: another data set of the same source
row,Binder,Kd [nM]
1,B15,0.36
2,B16,1.14
3,B17,2.41
4,B18,4.06
5,B19,1.95
6,B20,4.66
7,B21,2.31
8,B22,0.55
9,B23,1.94
10,B24,1.87
11,B25,2.42
12,B26,3.2
13,B27,1.11
14,B28,0.38
15,B29,2.6
16,B30,2.64
17,B31,1.86
18,B32,2.16
19,B33,0.4
20,B34,7.08
21,B35,1.81
22,B36,3.16
23,B37,5.06
24,B38,0.39

# Molecular target: T3, human IL-18BP (interleukin-18 binding …)
# Assay: cell-based or functional assay
Binder,"EC50 in PBMC Assay 1 (endogenous IL-18BP), IFNγ [nM]","EC50 in PBMC Assay 2 (precomplexed IL-18BP), IFNγ [nM]"
B39,3.1,3
B40,7.9,2.2
B41,127,19.7
B42,4.4,0.79
